The source of these data is paper PMC8548718 (Frontiers in Molecular Biosciences, 2021).

The target in this test is T1, PD1-Fc (UniProt Q15116).
T1 construct: PD-1 (programmed cell death protein 1); most likely the extracellular domain of human PD-1 on a human IgG Fc
The test is described as follows: BLI; BLItz system; biotinylated 102c3 nanobody immobilised on SA2 biosensors, dipped in serial dilutions of PD1-Fc. As to conditions: both partners purified.

T1 sequence (Q15116 25-170): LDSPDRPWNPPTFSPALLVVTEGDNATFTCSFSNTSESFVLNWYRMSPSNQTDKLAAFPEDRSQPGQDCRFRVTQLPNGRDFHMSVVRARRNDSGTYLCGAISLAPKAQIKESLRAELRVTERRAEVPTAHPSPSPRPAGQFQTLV

B1: nanobody 102c3 (anti-PD1 single-domain antibody, VHH), biotinylated (VHH)
VHH: EVQLVESGGGLVQAGKSLRLSCAASGSIFSIHAMGWFRQAPGKEREFVAAITWSGGITYYEDSVKGRFTISRDNAKNTVYLQMNSLKPEDTAIYYCAADRAESSWYDYWGQGTQVTVSS
notes: the whole synthesised fragment translates to MGSR...PQPDPSP; also called 102c3 nanobody; 102c3 VHH; source: E. coli BL21DE3-BirA, periplasm extract, purified (HIS Mag Sepharose Excel, dialysis against PBS); not shown: biotinylation signal, C-terminal, kept
Turning to B1, the binding result was “binds”.
